# Data from patent US7052704B2, “Methods and compositions for lipidization of hydrophilic molecules” (University of Southern California, priority 1995, dated 2006).
# B1: BBIssPal: palmityl disulfide conjugate of BBI, made from thiolated BBI and Pal-PDC (conjugate, UniProt P01055 40-110, looked up)
# Bowman-Birk type proteinase …: DDESSKPCCDQCACTKSNPPQCRCSDMRLNSCHSACKSCICALSYPAQCFCVDITDFCYEPCKPSEDDKEN
# modifications: palmityl disulfide conjugate
# notes: palmityl disulfide conjugate of BBI, made from thiolated BBI and Pal-PDC
# B2: BBIssPal(4): BBI modified with 4 palmitic acids (conjugate, UniProt P01055 40-110, looked up)
# Bowman-Birk type proteinase …: B1 Bowman-Birk type proteinase …
# modifications: 4 palmityl disulfide groups
# notes: BBI modified with 4 palmitic acids
# B3: BBIssPal(2): BBI modified with 2 palmitic acids (conjugate, UniProt P01055 40-110, looked up)
# Bowman-Birk type proteinase …: B1 Bowman-Birk type proteinase …
# modifications: 2 palmityl disulfide groups
# notes: BBI modified with 2 palmitic acids
# B4: BBIssOleic: oleic acid conjugated BBI, made by the identical procedure as BBIssPal (conjugate, UniProt P01055 40-110, looked up)
# Bowman-Birk type proteinase …: B1 Bowman-Birk type proteinase …
# modifications: oleic acid disulfide conjugate
# notes: oleic acid conjugated BBI, made by the identical procedure as BBIssPal
# Tests used:
# C3H 10T1/2 cells = test: Plating efficiency in conjunction with transformation assay; type: cell-based; conditions: 200 cells/dish, 10 days; conjugates 1.0 μg/ml after MCA 1 μg/ml 24 hr
# Description: The plating efficiency (PE) of the cells was also studied in conjunction with each of the transformation assays. To determine the PE of the cells in the different treatment groups, cells (200 cells/dish) were seeded into three 60-mm petri dishes per experiment group and treated in the identical manner as the transformation assay cells. The cells in these assays were terminated at 10 days, fixed with 100% methanol, and stained with giemsa; the colonies of 50 cells or more visible under a microscope were then counted. The plating efficiency is defined as the (number of colonies/number of cells seeded)*100.
# [1] = test system: C3H 10T1/2(clone 8) cells; test: In vitro transformation assay (MCA-induced); type: cell-based; conditions: for transformed foci in the dishes scored / Fraction of dishes containing transformed foci / No. of dishes with transformed foci/No. of dishes: MCA 1 μg/ml 24 hr, then conjugates 1.0 μg/ml for first three weeks; for Fraction of dishes containing transformed foci / No. of dishes with transformed foci/No. of dishes: scored at six weeks; for retention of the biological (anti-transformation) activity of BBI: 1.0 μg/ml
# Description: Transformation assays were carried out using C3H 10T1/2(clone 8) cells according to the published recommendations [Reznikoff, C. A. et al. (1973) Cancer. Res. 33, 3239–3249; Reznikoff, C. A. et al. (1973) Cancer. Res. 33, 3231–3238]. Stock cultures of mycoplasma-free cells were maintained by passing 50,000 cells per 75 cm^2 flask every seven days. Using this schedule, the cells were always passed approximately 2 days before reaching confluence. The stock culture was grown in Eagle's basal medium supplemented with 10% FBS, penicillin (100 units), and streptomycin (100 μg) and used for the transformation assays at passages of 9 to 14. The cells were passed by treating the stock cells with trypsin (0.1%) in PBS for 5 min and quenching the trypsin with 5 ml of the medium. This procedure was adapted to minimize spontaneous transformation in the stock cultures and maximize the plating efficiency in the petri dishes. The FBS stock used in the cultures was pre-screened to ensure that the serum was able to support the expression and the growth of the transformed cells.
# For the transformation assays, C3H 10T1/2 cells (1000/dish) were seeded into 60 mm petri dishes and allowed to grow in a humidified 5% CO2 atmosphere in Eagle's basal medium, supplemented with 10% FBS, penicillin (100 units), and streptomycin (100 μg), for 24 hr. Subsequently, the cells were initiated by treatment with 25 μl of the 3-methylcholanthrene (MCA) in acetone stock solution ([…]) to a final concentration of 1 μg/ml of MCA (5 μg/5 ml). The cells were allowed to grow in the presence of the carcinogen or solvent for 24 hr, and the medium in each dish was then replaced with fresh medium containing no carcinogen or solvent. The medium in the dishes was replaced twice per week for the first two weeks of the assay, and thereafter once a week for the remainder four weeks of the assay. In the experiments designed to determine the transformation inhibitory activity of the conjugates, the cells were maintained in the medium containing the conjugates (1 μg/ml) for the first three weeks of the assay; thereafter, the cells were maintained in medium containing no added conjugates.
# Six weeks after the carcinogen treatment, the cells were inspected under a microscope for adherence to the culture dishes and were washed with PBS and then fixed in 100% methanol. The fixed monolayers were then stained with Giemsa stain. 20 dishes per group were treated in each experiment. In addition to the test groups, all the transformation assays contained at least three other groups: negative control (not treated with carcinogen or solvent), acetone control (treated with 25 μl of acetone), and positive control [treated with MCA (1 μg/ml) in 25 μl of acetone]. The transformed foci (>3 mm in diameter) in the plates were studied under a microscope and classified according to published guidelines as types I, II, or III [Landolph, J. R. (1985) Transfomatin assay of established cell lines: Mechanism and Application (ed. Kakunaga, T., and Yamasaki, H.) IARC Scientific Publications, Lyon, France pp. 185–201]. Briefly, type III foci were dense, multilayered, basophilic, areas of cell growth which stained to a deep blue color with Giemsa and had rough criss-crossed edges. Type II foci were also dense, multilayered, areas of cell growth, but were stained to a purple color with Giemsa and had smoother, more defined edges compared to Type III foci. Type I foci were not scored in the assay.
# BBI, either as the free protein or in conjugated form to palmitic or oleic acid, was added to the cultures at 1.0 μg/ml for the first three weeks of the transformation assay period starting immediately after the MCA treatment. MCA-treated cells were exposed to 3-methylcholanthrene, dissolved in 25 /μl of acetone, at a concentration of 1 μg/ml for 24 hr. Acetone-treated cells were exposed to 25 μl of acetone for 24 hr only. […]
# [2] = mouse, in vivo, iv, 3 mg/kg
# [3] = test system: Human colon carcinoma cells (Caco-2)
# Caco-2 monolayers = test: Transport of single- and multiple-conjugates across Caco-2 monolayers in transwells; type: cell-based, Human; conditions: for order of the transport extent (cumulative transport): Caco-2 transwells, n=3
# Description: Confluent cell monolayers, 2 to 3 weeks old, and having a TEER value of approximately 500 Ωcm^2, were first incubated with Dulbecco's MEM containing 1% of FBS for 30 min at 37° C. Subsequently, the incubation medium was removed, and the ^125I-BBI (10 μg/ml) conjugates in 1.5 ml of the medium was added to the apical chamber of the transwells. To the basal chamber, 2.5 ml of the medium was added and the transwells were incubated at 37° C. At predetermined times, the entire basal chamber medium (2.5 ml) from each transwell was removed and counted for radioactivity using a gamma counter. In each experiment, typically seven samples were taken at 1, 2, 3, 4, 5, 6 and 24 hr post-incubation. After the 24 hr samples were taken, the cell monolayers were rinsed three times with ice-cold PBS, cut out of the inserts, and counted for accumulated radioactivity using a gamma counter.
# The integrity of the ^125I-BBI conjugates transported across the monolayers was studied using Sephadex G50 gel-filtration chromatography. Briefly, after the basal medium was sampled at 24 hr, 1.0 ml of the medium was centrifuged at 2000 rpm and then eluted from a G50 column (10 ml) using PBS; 1 ml fractions were collected and the fraction-associated radioactivity was determined using a gamma counter. Intact conjugates eluted at column void volume and fragments smaller than 1 kDa were eluted at or above the column volume.
# In the transwell experiments, the conjugates were incubated with the apical side of the cells for 1 hr at 37° C. The transwells were then rinsed three times with ice-cold PBS and then reincubated with serum free medium. The release of the conjugates into the apical and the basal medium was chased for 24 hr by counting the entire basal or the apical medium at different times. The total counts obtained at the end of the chase period (transwells+media counts were added, and the release of the conjugates (% of total) at different times was calculated. To ensure that the counts obtained in the transwells at 24 hr were due to the presence of the conjugates in the cells and not non-specific binding to the plastic, the transwells were exposed to trypsin for 10 min, rinsed three times with ice-cold pbs, and subsequently counted for accumulated radioactivity.
# BBI was modified with 2 or 4 palmitic acids, and the transport was determined in transwells. The cumulative transport of BBI, BBI modified with 4 palmitic acids, and BBI modified with 2 palmitic acids in Caco-2 monolayers were determined as BBI (ng/monolayer) ± SEM, n=3. The order of the transport extent was BBIssPal(4)>BBI>BBIssPal(2). The results of the internalization of the conjugates into the same cells were determined as the ng of BBI internalized per monolayer. […] The basal media obtained at 24 hr from the transwells was analyzed using a G50 column. […] However, a small, but significant, amount of the basal media of BBIssPal(2) consisted of intact conjugate. This quantity consisted of between about 10 and about 20% of the total radioactivity present in the basal medium.
Molecule,Plating Efficiency (%) (C3H 10T1/2 cells),transformed foci in the dishes scored [1],Fraction of dishes containing transformed foci [1],No. of dishes with transformed foci/No. of dishes [1],"kidney clearance, fold lower than native-BBI [2]","liver accumulation, fold higher than BBI [2]","lung accumulation, fold higher than BBI [2]",retention in the liver at 24 hr [2],retention of the biological (anti-transformation) activity of BBI [1],binding to BSA [3],"internalization, fold increase over that of BBI [3]",reduction of uptake after reduction with DTT [3],reduction of uptake by defatted-BSA [3],"uptake, fold higher than 125I-BBI [3]","uptake, fold higher than native-BBI [3]","uptake, fold higher than that of 125I-BBI [3]",order of the transport extent (cumulative transport) (Caco-2 monolayers),transcytosis across the monolayers (G50 analysis of basal media) (Caco-2 monolayers; basal media at 24 hr),"internalization into the cells (rank) (Caco-2 monolayers; same Caco-2 monolayers, per monolayer)","blood levels, fold higher than BBI [2]"
"Cc1ccc2cc3c(ccc4ccccc43)c3c2c1CC3 [MCA, 3-methylcholanthrene, reference compound]",21 ± 3.0%,6 out of the 19 dishes scored contained type III foci,0.32,6/19,,,,,,,,,,,,,,,,
B1,23 ± 3.0%,one type II focus out of the 20 dishes,0.05,1/20,about 4 fold,approximately 5 fold,approximately 2 fold,remained high in the liver even at 24 hr post-injection,retained the original biological activity of BBI,binds strongly to BSA,35 fold,approximately 80%,82%,approximately 100 fold,10 fold,80 fold,,,,
B2,,,,,,,,,,,,,,,,,BBIssPal(4)>BBI>BBIssPal(2),neither BBI nor BBIssPal(4) was transcytosed,highest uptake,
B3,,,,,,,,,,,,,,,,,BBIssPal(4)>BBI>BBIssPal(2),,,
B4,24 ± 3.5%,no transformed foci,0,0/20,about 4 fold,about 4 fold,about 2 fold,significant levels of the conjugate present in the liver even at 24 hr post-injection,retained the original biological activity of BBI,,,,,about 108 fold,,,,,,about 4 fold
